10 molecules from publication PMC4245128, “Influence of Nonenzymatic Posttranslational Modifications on Constitution, Oligomerization and Receptor Binding of S100A12” (PLoS ONE, 2014) can be followed below.

Data set [1] concerns the molecule itself. Put plainly: SEC; data not shown; Superdex 75 10/300 GL, 10 mM Tris-HCl, 150 mM NaCl, 500 µM CaCl2, 10 µM ZnCl2, pH 7.4.
Data set [2] concerns the target T1, recombinant human RAGE Fc chimera (human, UniProt Q15109 23-342).
T1 construct: receptor for advanced glycation end-products (RAGE), human; No catalogue number is printed; also called receptor for advanced glycation end-products; recombinant RAGE; source: bought: R&D Systems, from a mouse myeloma cell line
Put plainly: SPR; Biacore X100, 25 °C, 30 µL/min; 7200 RU of RAGE Fc chimera amine-coupled to a CM5 chip; S100A12 samples injected (180 s association, 180 s dissociation); HBS-P (10 mM HEPES, 150 mM NaCl, 0.05% surfactant 20, pH 7.4) with 500 µM CaCl2 and 10 µM ZnCl2; reference cell subtracted; response given relative to the unincubated negative control. The note with it: both partners purified.

Data set [3] concerns the molecule itself. Put plainly: SEC; Superdex 75 10/300 GL, 10 mM Tris-HCl, 150 mM NaCl, 500 µM CaCl2, 10 µM ZnCl2, pH 7.4, 0.6 mL/min; calibrated with bovine serum albumin, carbonic anhydrase, cytochrome C and aprotinin.

T1 sequence (Q15109 23-342, change not shown): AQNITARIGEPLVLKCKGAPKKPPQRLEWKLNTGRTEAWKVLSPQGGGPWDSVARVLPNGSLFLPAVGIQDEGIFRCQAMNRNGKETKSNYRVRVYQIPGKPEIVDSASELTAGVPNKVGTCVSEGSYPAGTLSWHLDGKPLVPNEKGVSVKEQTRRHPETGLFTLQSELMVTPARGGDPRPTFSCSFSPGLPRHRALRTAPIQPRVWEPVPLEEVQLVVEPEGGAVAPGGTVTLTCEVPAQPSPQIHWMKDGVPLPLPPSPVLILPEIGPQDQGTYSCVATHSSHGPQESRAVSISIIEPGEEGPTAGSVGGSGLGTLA

B1: CEL-S100A12 prepared with 3 mM pyruvate (natural protein, UniProt P80511 1-92, looked up)
chain: MTKLEEHLEGIVNIFHQYSVRKGHFDTLSKGELKQLLTKELANTIKNIKDKAVIDEIFQGLDANQDEQVDFQEFISLVAIALKAAHYHTHKE
modifications: N-epsilon-carboxyethyllysine (CEL) on all lysine residues; carboxyethylated N-terminus; no arginine modifications (CEL rate equal to or higher than in all MGO-modified samples)
notes: S100A12 as in m1, CEL-modified by reductive amination; Heterogeneous mixture; the extent of modification is not quantified; also called CEL-modified S100A12 (3 mM pyruvate); source: E. coli One Shot BL21 (DE3), purified; reductive amination with 3 mM pyruvate and NaBH3CN at 25 °C for 16 h, excess reagent removed by ultrafiltration
For B1, the “stoichiometry N” value in data set [1] was 6. Also, the “percent binding (of the control)” value in data set [2] is 80.9%.

B2: CEL-S100A12 prepared with 600 µM pyruvate (natural protein, UniProt P80511 1-92, looked up)
chain: MTKLEEHLEGIVNIFHQYSVRKGHFDTLSKGELKQLLTKELANTIKNIKDKAVIDEIFQGLDANQDEQVDFQEFISLVAIALKAAHYHTHKE
modifications: N-epsilon-carboxyethyllysine (CEL) on all lysine residues; carboxyethylated N-terminus; no arginine modifications (partial, modification rate rises with pyruvate)
notes: S100A12 as in m1, CEL-modified by reductive amination; Heterogeneous mixture; the extent of modification is not quantified; also called CEL-modified S100A12 (600 µM pyruvate); source: E. coli One Shot BL21 (DE3), purified; reductive amination with 600 µM pyruvate and NaBH3CN at 25 °C for 16 h, excess reagent removed by ultrafiltration
Turning to B2, the “stoichiometry N” value in data set [1] was 6.

B3: S100A12 incubated with 40 µM MGO (natural protein, UniProt P80511 1-92, looked up)
chain: MTKLEEHLEGIVNIFHQYSVRKGHFDTLSKGELKQLLTKELANTIKNIKDKAVIDEIFQGLDANQDEQVDFQEFISLVAIALKAAHYHTHKE
modifications: hydroimidazolone, MGO-hemiaminal/CEA, argpyrimidine and tetrahydropyrimidine at R21; CEL at K3, K30, K34, K39, K49, K83, K91; carboxyethylation of the N-terminus (partial)
notes: S100A12 as in m1, chemically modified with methylglyoxal; Heterogeneous mixture of modified and unmodified chains; also called MGO-modified S100A12 (40 µM MGO); source: E. coli One Shot BL21 (DE3), purified; incubated with 40 µM methylglyoxal at 37 °C for 1, 3 or 7 days, excess reagent removed by ultrafiltration
As to B3, in data set [1], the “stoichiometry N” value turned out to be 6.

B4: CEL-S100A12 prepared with 300 µM pyruvate (natural protein, UniProt P80511 1-92, looked up)
chain: MTKLEEHLEGIVNIFHQYSVRKGHFDTLSKGELKQLLTKELANTIKNIKDKAVIDEIFQGLDANQDEQVDFQEFISLVAIALKAAHYHTHKE
modifications: N-epsilon-carboxyethyllysine (CEL) on all lysine residues; carboxyethylated N-terminus; no arginine modifications (partial, modification rate rises with pyruvate)
notes: S100A12 as in m1, CEL-modified by reductive amination; Heterogeneous mixture; the extent of modification is not quantified; also called CEL-modified S100A12 (300 µM pyruvate); source: E. coli One Shot BL21 (DE3), purified; reductive amination with 300 µM pyruvate and NaBH3CN at 25 °C for 16 h, excess reagent removed by ultrafiltration
On to B4, for which the “stoichiometry N” value in data set [1] came to 6.

B5: recombinant S100A12 (natural protein, UniProt P80511 1-92, looked up)
chain: MTKLEEHLEGIVNIFHQYSVRKGHFDTLSKGELKQLLTKELANTIKNIKDKAVIDEIFQGLDANQDEQVDFQEFISLVAIALKAAHYHTHKE
notes: N-terminal methionine only partially removed (M1S100A12 predominant); Mixture of chains with and without M1; The controls incubated without reagent are written as this molecule; also called M1S100A12; unincubated negative control; source: E. coli One Shot BL21 (DE3), purified (chitin column, on-column intein cleavage with DTT, dialysis, NAP-5)
As to B5, the “stoichiometry N” value in data set [3] worked out at 6.

B6: S100A12 incubated with 4 µM MGO (natural protein, UniProt P80511 1-92, looked up)
chain: MTKLEEHLEGIVNIFHQYSVRKGHFDTLSKGELKQLLTKELANTIKNIKDKAVIDEIFQGLDANQDEQVDFQEFISLVAIALKAAHYHTHKE
modifications: hydroimidazolone (+54 Da) and MGO-hemiaminal/CEA (+72 Da) at R21 (partial, low modification degree)
notes: S100A12 as in m1, chemically modified with methylglyoxal; Heterogeneous mixture of modified and unmodified chains; also called MGO-modified S100A12 (4 µM MGO); source: E. coli One Shot BL21 (DE3), purified; incubated with 4 µM methylglyoxal at 37 °C for 1, 3 or 7 days, excess reagent removed by ultrafiltration
With B6, the “stoichiometry N” value in data set [1] was 6.

B7: S100A12 incubated with 4 mM MGO (natural protein, UniProt P80511 1-92, looked up)
chain: MTKLEEHLEGIVNIFHQYSVRKGHFDTLSKGELKQLLTKELANTIKNIKDKAVIDEIFQGLDANQDEQVDFQEFISLVAIALKAAHYHTHKE
modifications: hydroimidazolone, MGO-hemiaminal/CEA, argpyrimidine and tetrahydropyrimidine at R21; CEL at K3, K30, K34, K39, K46, K49, K51, K83, K91; carboxyethylation of the N-terminus; a +126 Da modification not assigned to a residue
notes: S100A12 as in m1, chemically modified with methylglyoxal; no signal of the native protein left in MALDI-TOF-MS; By SEC only a small part was hexamer; also called MGO-modified S100A12 (4 mM MGO); MGO-S100A12; source: E. coli One Shot BL21 (DE3), purified; incubated with 4 mM methylglyoxal at 37 °C for 1, 3 or 7 days, excess reagent removed by ultrafiltration
On to B7, for which, in data set [3], the “stoichiometry N” value is 6.

B8: CEL-S100A12 prepared with 15 mM pyruvate (natural protein, UniProt P80511 1-92, looked up)
chain: MTKLEEHLEGIVNIFHQYSVRKGHFDTLSKGELKQLLTKELANTIKNIKDKAVIDEIFQGLDANQDEQVDFQEFISLVAIALKAAHYHTHKE
modifications: N-epsilon-carboxyethyllysine (CEL) on all lysine residues; carboxyethylated N-terminus; no arginine modifications (partial, modification rate rises with pyruvate)
notes: S100A12 as in m1, CEL-modified by reductive amination; Heterogeneous mixture; the extent of modification is not quantified; also called CEL-modified S100A12 (15 mM pyruvate); source: E. coli One Shot BL21 (DE3), purified; reductive amination with 15 mM pyruvate and NaBH3CN at 25 °C for 16 h, excess reagent removed by ultrafiltration
As for B8, the “stoichiometry N” value in data set [1] is 6.

B9: S100A12 incubated with 400 µM MGO (natural protein, UniProt P80511 1-92, looked up)
chain: MTKLEEHLEGIVNIFHQYSVRKGHFDTLSKGELKQLLTKELANTIKNIKDKAVIDEIFQGLDANQDEQVDFQEFISLVAIALKAAHYHTHKE
modifications: hydroimidazolone, MGO-hemiaminal/CEA, argpyrimidine and tetrahydropyrimidine at R21; CEL at K3, K30, K34, K39, K46, K49, K51, K83, K91; carboxyethylation of the N-terminus (partial)
notes: S100A12 as in m1, chemically modified with methylglyoxal; Heterogeneous mixture; by SEC a minor part was not present as hexamer; also called MGO-modified S100A12 (400 µM MGO); source: E. coli One Shot BL21 (DE3), purified; incubated with 400 µM methylglyoxal at 37 °C for 1, 3 or 7 days, excess reagent removed by ultrafiltration
B9: in data set [3], the “stoichiometry N” value turned out to be 6.

B10: CEL-S100A12 prepared with 30 mM pyruvate (natural protein, UniProt P80511 1-92, looked up)
chain: MTKLEEHLEGIVNIFHQYSVRKGHFDTLSKGELKQLLTKELANTIKNIKDKAVIDEIFQGLDANQDEQVDFQEFISLVAIALKAAHYHTHKE
modifications: N-epsilon-carboxyethyllysine (CEL) on all lysine residues; carboxyethylated N-terminus; no arginine modifications (highest modification rate)
notes: S100A12 as in m1, CEL-modified by reductive amination; Heterogeneous mixture; the extent of modification is not quantified; also called CEL-modified S100A12 (30 mM pyruvate); CEL-S100A12 at the highest modification rate; source: E. coli One Shot BL21 (DE3), purified; reductive amination with 30 mM pyruvate and NaBH3CN at 25 °C for 16 h, excess reagent removed by ultrafiltration
For B10, the “stoichiometry N” value in data set [1] came to 6. Besides, in data set [2], the “percent binding (of the control)” value was 34%.
